In patent US20240166703A1, “ANTI-INFLAMMATORY PEPTIDE AND METHOD OF USE THEREOF” (The Regents of the University of California, priority 2021, published 2024):
Changes are numbered by the printed parent chain.

T1: IKK2 (purified recombinant; construct not stated for the experiment of FIG. 2D) (human, UniProt O14920 1-756, limits assumed)
T1 sequence (looked up): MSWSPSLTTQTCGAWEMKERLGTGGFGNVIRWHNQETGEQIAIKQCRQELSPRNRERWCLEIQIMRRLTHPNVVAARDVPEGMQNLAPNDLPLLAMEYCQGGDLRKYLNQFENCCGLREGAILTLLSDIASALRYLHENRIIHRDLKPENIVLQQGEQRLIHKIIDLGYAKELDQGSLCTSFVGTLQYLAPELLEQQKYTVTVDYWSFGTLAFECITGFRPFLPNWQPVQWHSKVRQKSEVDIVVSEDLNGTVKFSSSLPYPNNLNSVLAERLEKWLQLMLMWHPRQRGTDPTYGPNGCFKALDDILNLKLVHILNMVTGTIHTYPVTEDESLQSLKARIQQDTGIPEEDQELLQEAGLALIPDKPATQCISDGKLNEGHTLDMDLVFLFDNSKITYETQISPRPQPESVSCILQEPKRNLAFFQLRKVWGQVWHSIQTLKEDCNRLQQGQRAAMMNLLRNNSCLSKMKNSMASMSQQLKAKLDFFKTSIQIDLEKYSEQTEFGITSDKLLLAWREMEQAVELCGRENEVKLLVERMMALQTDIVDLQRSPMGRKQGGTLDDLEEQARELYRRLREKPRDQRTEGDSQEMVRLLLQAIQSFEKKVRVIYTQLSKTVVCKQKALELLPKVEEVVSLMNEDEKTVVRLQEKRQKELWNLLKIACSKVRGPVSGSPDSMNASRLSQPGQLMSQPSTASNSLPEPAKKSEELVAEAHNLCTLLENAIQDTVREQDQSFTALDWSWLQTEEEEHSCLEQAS

B1: GST-NEMO^241-419 6G (other, human, UniProt Q9Y6K9 241-419, looked up)
chain: YDNHIKSSVVGSERKRGMQLEDLKQQLQQAEEALVAKQEVIDKLKEEAEQHKIVMETVPVLKAQADIYKADFQAERQAREKLAEKKELLQEQLEQLQREYSKLKASCQESARIEDMRKRHVEVSQAPLPPAPAYLSSPLALPSGGGGGGEEPPDFCCPKCQYQAPDMDTLQIHVMECIE
notes: not shown: glutathione-S-transferase (GST) tag of vector pGEX4T-2, N-terminal
B2: GST-NEMO^241-419 3G (other, human, UniProt Q9Y6K9 241-419, looked up)
chain: B1 chain with G147S, G148P, G149P
notes: as for B1

Target: T1, IKK2 (purified recombinant; construct …)
Test: GST pull-down with purified proteins in the presence of Ub4, western blot

Binder	binding result
B1	no binding
B2	no binding
